From article PMC4429956

Tests used:
[1] = molecular target: fluorescent H3K4me3 peptide; assay: fluorescence polarisation; increasing concentrations of TAF3 PHD finger with fluorescent H3K4me3 peptide, no PI; apparent KD
[2] = molecular target: fluorescent H3K4me3 peptide; assay: fluorescence polarisation; increasing concentrations of TAF3 PHD finger with fluorescent H3K4me3 peptide, with a 5-fold molar excess of PI5P; apparent KD

B1: GST-TAF3 PHD finger, wild type (domain or fragment)
chain: IWICPGCNKPDDGSPMIGCDDCDDWYHWPCVGIMTAPPEEMQWFCPKCANKKKDKKHKKRKHRAH
modifications: not checked
B1 was tested. Which Kd [1] did it give?
The Kd was 1000 nM.

What about the Kd [2] of the same binder?
Its Kd is 3.5 µM.
